Drawing on publication PMC11213201 (2024), this text covers response for four variants.

The chains are these.
B1: ZFYVE21-FLAG [not stated] / LC3B [human (endogenous in HUVEC)] (parent complex)
chain 1: MSSEVSARRDAKKLVRSPSGLRMVPEHRAFGSPFGLEEPQWVPDKECRRCMQCDAKFDFLTRKHHCRRCGKCFCDRCCSQKVPLRRMCFVDPVRQCAECALVSLKEAEFYDKQLKVLLSGATFLVTFGNSEKPETMTCRLSNNQRYLFLDGDSHYEIEIVHISTVQILTEGFPPGGGNARATGMFLQYTVPGTEGVTQLKLTVVEDVTVGRRQAVAWLVAMHKAAKLLYESRDQ
chain 2: not shown

In this assay the parent is B1. In words: FLAG co-IP and Western blot (densitometry); transduced HUVECs; read off a plot. (In general: A western blot detects proteins with antibodies after separation by electrophoresis.)
With chain 1 F57A, the response is approximately 0.17 Fold Change LC3-II. Take chain 1 L60A: the response was approximately 0.078 Fold Change LC3-II.

Take chain 1 L149A: the response is approximately 0.092 Fold Change LC3-II. The value for chain 1 Y146A was approximately 0.036 Fold Change LC3-II.
